Assay results taken from US8921515B2, “Methods and compositions of preparation for proteome analysis” (Case Western Reserve University, priority 2011, dated 2014).
Entries after “also recorded” stand apart in the source; their conditions may differ. Counter-ions that a name gives are not always drawn. Like-named read-outs stand apart in the source and are kept apart here. Square brackets hold non-standard residues; d marks the D form. Ends that are not written are not given here. Met(O) = CS(=O)CC[C@H](N)C(=O)O

Columns and labels:
[1] = test system: OS membrane protein pellet; experiment: Protein solubilization efficiencies of solubilizing agents (DC protein assay of supernatant)
Experimental: Bovine retinas obtained from WL Lawson Company (Omaha, Nebr.) were used to prepare the photoreceptor outer segment (OS) by sucrose density ultracentrifugation. All solvents used for bovine OS preparations contained protease inhibitors (1 mM EDTA, 0.2 mM PMSF, 0.7 μg/μL leupeptin, and 0.5 μg/μL pepstatin A) to inhibit protein degradation and 100 μM diethylenetriamine pentaacetic acid (DTPA) to inhibit oxidation.
The solubilized pellet solution was sonicated with a VirSonic 100 ultrasonic cell disrupter (SP Scientific, Gardiner, N.Y.) three times at 4.5 kHz of ultrasonic frequency for 9 seconds with 3-minute intervals between the sonications. The resulting protein extract was centrifuged at 15,000 g for 10 minutes, and the solubilized proteins in the supernatant were quantified using a DC protein assay kit (Bio-Rad, Hercules, Calif.).

[2] = target: T1, porcine trypsin (Sus scrofa, UniProt P00761); experiment: Effect of solubilizing agents on trypsin amidase activity (Ac-Lys-p-nitroaniline hydrolysis, 405 nm); assay type: biochemical
T1 construct: purchased Promega
Experimental: To measure the amidase activity of 100 nM trypsin, we tracked the hydrolysis of 2 mM Ac-Lys-p-nitro aniline hydrochloride through absorbance increase at 405 nm over 3 min in 100 mM ABC using an ELISA plate reader (Thermo-Fisher Scientific, Waltham, Mass.).

[3] = cited from earlier work
[4] = pI values of BSA tryptic peptides; assay type: physicochemical

T1 sequence (P00761 9-231): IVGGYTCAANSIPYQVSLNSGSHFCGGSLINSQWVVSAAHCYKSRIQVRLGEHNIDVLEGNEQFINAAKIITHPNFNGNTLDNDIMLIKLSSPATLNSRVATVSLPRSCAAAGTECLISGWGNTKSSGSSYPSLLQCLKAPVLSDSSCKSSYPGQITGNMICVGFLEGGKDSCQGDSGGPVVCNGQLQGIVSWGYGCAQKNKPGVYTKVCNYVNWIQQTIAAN

Row | Compound | pI [4] | other results
1 | N=C(N)N [Gdn-HCl, guanidine hydrochloride] | – | Protein amount solubilized [1]: 7.3 ± 4.1 μg/10μ OS membrane preparation; protein solubilized from OS membrane protein pellet [1]: 7.3 µg; trypsin activity retained ([2]; 0.1 M agent): 40%; trypsin activity retained ([2]; 0.25 M agent): 20%
2 | O=C(O)C(F)(F)C(F)(F)C(F)(F)C(F)(F)C(F)(F)C(F)(F)C(F)(F)F [PFOA, perfluorooctanoic acid] | – | Protein amount solubilized ([1]; OS membrane pellet in 100 mM ABC with agent at the concentration printed in the row (25 mM SDS 0.8% w/v, 25 mM PFOA 1% w/v, 4M urea, 4M Gdn-HCl), mean ± SD, triplicate): 47.4 ± 4.4 μg/10μ OS membrane preparation; protein solubilized from OS membrane protein pellet ([1]; text: 100 mM ABC, 1% PFOA, 1% SDS, urea, Gdn-HCl): 47.4 µg; trypsin activity retained ([2]; 0.5% surfactant, control without agent = 100%): more than 80%; trypsin activity retained ([2]; PFOA concentrations up to 0.25%, control without agent = 100%): fully enzymatically activity; also recorded: full activity; pKa ([3]; carboxyl group, at infinite dilution / diluted solution, determined experimentally): 3.8; pKa ([3]; other reports): lower than 1
3 | NC(N)=O [Urea, urea] | – | Protein amount solubilized [1]: 8.1 ± 3.4 μg/10μ OS membrane preparation; protein solubilized from OS membrane protein pellet [1]: 8.1 µg; trypsin activity retained ([2]; 2 M agent): approximately 50%; trypsin activity retained ([2]; 4 M agent): ~20%
4 | AEFVEVTK (listed as Homo sapiens) [SEQ ID No: 7, tryptic peptide of BSA] | 4.5 | –
5 | DAFLGSFLYEYSR (listed as Homo sapiens) [SEQ ID No: 13, tryptic peptide of BSA] | 4.4 | –
6 | ECCHGDLLECADDR (listed as Homo sapiens) [SEQ ID No: 17, tryptic peptide of BSA] | 4.1 | –
7 | ETYGDM(o)ADCCEK (ETYGD[Met(O)]ADCCEK; cysteine pairing not given here; listed as Homo sapiens) [SEQ ID No: 20, tryptic peptide of BSA] | 3.9 | –
8 | ETYGDMADCCEK (listed as Homo sapiens) [SEQ ID No: 21, tryptic peptide of BSA] | 3.9 | –
9 | EYEATLEECCAK (listed as Homo sapiens) [SEQ ID No: 18, tryptic peptide of BSA] | 4.1 | –
10 | KQTALVELLK (listed as Homo sapiens) [SEQ ID No: 6, tryptic peptide of BSA] | 8.6 | –
11 | KVPQVSTPTLVEVSR (listed as Homo sapiens) [SEQ ID No:5, tryptic peptide of BSA] | 8.8 | –
12 | LGEYGFQNALIVR (listed as Homo sapiens) [SEQ ID No: 10, tryptic peptide of BSA] | 6.0 | –
13 | LKPDPNTLCDEFK (listed as Homo sapiens) [SEQ ID No: 12, tryptic peptide of BSA] | 4.6 | –
14 | LVNELTEFAK (listed as Homo sapiens) [SEQ ID No: 4, tryptic peptide of BSA] | 4.5 | –
15 | LVTDLTK (listed as Homo sapiens) [SEQ ID No: 1, tryptic peptide of BSA] | 5.8 | –
16 | M(o)PCTEDYLSLILNR ([Met(O)]PCTEDYLSLILNR; listed as Homo sapiens) [SEQ ID No: 14, tryptic peptide of BSA] | 4.4 | –
17 | RHPEYAVSVLLR (listed as Homo sapiens) [SEQ ID No: 9, tryptic peptide of BSA] | 8.8 | –
18 | RHPYFYAPELLYYANK (listed as Homo sapiens) [SEQ ID No: 8, tryptic peptide of BSA] | 8.4 | –
19 | SLHTLFGDELCK (listed as Homo sapiens) [SEQ ID No: 11, tryptic peptide of BSA] | 5.3 | –
20 | TCVADESHAGCEK (listed as Homo sapiens) [SEQ ID No: 19, tryptic peptide of BSA] | 4.7 | –
21 | TVMENFVAFVDK (listed as Homo sapiens) [SEQ ID No: 16, tryptic peptide of BSA] | 4.4 | –
22 | VPQVSTPTLVEVSR (listed as Homo sapiens) [SEQ ID No: 3, tryptic peptide of BSA] | 6.0 | –
23 | YIYEIAR (listed as Homo sapiens) [SEQ ID No: 2, tryptic peptide of BSA] | 6.0 | –
24 | YNGVFQECCQAEDK (listed as Homo sapiens) [SEQ ID No: 15, tryptic peptide of BSA] | 4.1 | –
